The series relates to Escherichia coli TOP10. The series can be described thus: shrunken log2 fold change of peptide-encoding DNA abundance (4.5 h post-induction vs induction); higher = less antimicrobial activity (less host growth inhibition). The note with it: time post-induction: 4.5 h; library: site-saturation at positions 5, 18, 19, 20.

Results on 91 sequences are retold here after the supplement of paper PMC9112550, “Optimization of the antimicrobial peptide Bac7 by deep mutational scanning” (BMC Biology, 2022).
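Also: peptides expressed intracellularly from a pBAD plasmid library in pooled LB shake-flask culture, induced with 0.3% L-arabinose, DNA abundance read by NGS, three biological replicates, DESeq2 with apeglm shrinkage.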

For the sequence RRIRTRPPRLPRPRPRPKAPPRP, the “shrunken log2 fold change” value is 0.317.

On to RRIRNRPPRLPRPRPRPDMGPRP, for which the “shrunken log2 fold change” value was -0.00968.

As for RRIRERPPRLPRPRPRPPWHPRP, the “shrunken log2 fold change” value is -0.0644.

In the case of RRIRFRPPRLPRPRPRPWLEPRP, the “shrunken log2 fold change” value worked out at 0.0931.

Consider RRIRSRPPRLPRPRPRPSMYPRP, for which the “shrunken log2 fold change” value was -0.286.

Regarding RRIRRRPPRLPRPRPRPAAMPRP, the “shrunken log2 fold change” value came to 0.516.

Turning to RRIRERPPRLPRPRPRPTIWPRP, the “shrunken log2 fold change” value is -0.222.

In the case of RRIRCRPPRLPRPRPRPPIYPRP, the “shrunken log2 fold change” value is -0.253.

Regarding RRIRNRPPRLPRPRPRPAFVPRP, the “shrunken log2 fold change” value turned out to be 0.154.

As to RRIRFRPPRLPRPRPRPANWPRP, the “shrunken log2 fold change” value was found to be 0.166.

As to RRIRMRPPRLPRPRPRPALIPRP, the “shrunken log2 fold change” value is 0.136.

On to RRIRFRPPRLPRPRPRPPWQPRP, for which the “shrunken log2 fold change” value stood at 0.361.

Turning to RRIRGRPPRLPRPRPRPEPYPRP, the “shrunken log2 fold change” value worked out at 0.141.

Take RRIRWRPPRLPRPRPRPFNCPRP: the “shrunken log2 fold change” value is -0.118.

For RRIRVRPPRLPRPRPRPFKRPRP, the “shrunken log2 fold change” value was -0.165.

On to RRIRLRPPRLPRPRPRPIPIPRP, for which the “shrunken log2 fold change” value was -0.456.

On to RRIRLRPPRLPRPRPRPLYIPRP, for which the “shrunken log2 fold change” value was -0.932.

On to RRIRARPPRLPRPRPRPEQYPRP, for which the “shrunken log2 fold change” value was -0.0243.

For the sequence RRIRDRPPRLPRPRPRPEVLPRP, the “shrunken log2 fold change” value was determined as 1.14.

For the sequence RRIRLRPPRLPRPRPRPMHFPRP, the “shrunken log2 fold change” value is 0.108.

On to RRIRFRPPRLPRPRPRPFKFPRP, for which the “shrunken log2 fold change” value is -0.107.

As to RRIRFRPPRLPRPRPRPPYNPRP, the “shrunken log2 fold change” value was -0.323.

Consider RRIRWRPPRLPRPRPRPDTEPRP, for which the “shrunken log2 fold change” value was 0.14.

In the case of RRIRNRPPRLPRPRPRPNPCPRP, the “shrunken log2 fold change” value was -0.1.

Consider RRIRNRPPRLPRPRPRPCPYPRP, for which the “shrunken log2 fold change” value was -0.0128.

On to RRIRWRPPRLPRPRPRPNIIPRP, for which the “shrunken log2 fold change” value is -0.486.

Regarding RRIRWRPPRLPRPRPRPNINPRP, the “shrunken log2 fold change” value was -0.429.

With RRIRSRPPRLPRPRPRPGFCPRP, the “shrunken log2 fold change” value came out at 0.108.

Take RRIRLRPPRLPRPRPRPCDRPRP: the “shrunken log2 fold change” value is -0.114.

Turning to RRIRHRPPRLPRPRPRPGDCPRP, the “shrunken log2 fold change” value was -0.0887.

Turning to RRIRMRPPRLPRPRPRPVRKPRP, the “shrunken log2 fold change” value was found to be 0.136.

On to RRIRERPPRLPRPRPRPYFKPRP, for which the “shrunken log2 fold change” value is -0.258.

On to RRIRARPPRLPRPRPRPADQPRP, for which the “shrunken log2 fold change” value was 0.755.

As for RRIRHRPPRLPRPRPRPELAPRP, the “shrunken log2 fold change” value was -0.0268.

Consider RRIRDRPPRLPRPRPRPQMDPRP, for which the “shrunken log2 fold change” value is -0.0397.

Turning to RRIRTRPPRLPRPRPRPVRAPRP, the “shrunken log2 fold change” value stood at 0.514.

For the sequence RRIRSRPPRLPRPRPRPITKPRP, the “shrunken log2 fold change” value was -0.083.

On to RRIRWRPPRLPRPRPRPHLNPRP, for which the “shrunken log2 fold change” value came to 0.0153.

Regarding RRIRVRPPRLPRPRPRPEVCPRP, the “shrunken log2 fold change” value was found to be 0.0183.

In the case of RRIRIRPPRLPRPRPRPHTAPRP, the “shrunken log2 fold change” value was 0.055.

For RRIRARPPRLPRPRPRPNSEPRP, the “shrunken log2 fold change” value came to 0.0883.

In the case of RRIRARPPRLPRPRPRPSDHPRP, the “shrunken log2 fold change” value is -0.134.

Turning to RRIRTRPPRLPRPRPRPLPPPRP, the “shrunken log2 fold change” value came to 0.333.

In the case of RRIRPRPPRLPRPRPRPLEPPRP, the “shrunken log2 fold change” value was found to be 0.0434.

For RRIRHRPPRLPRPRPRPYKTPRP, the “shrunken log2 fold change” value was -0.00968.

Consider RRIRHRPPRLPRPRPRPTALPRP, for which the “shrunken log2 fold change” value was found to be 0.0443.

With RRIRVRPPRLPRPRPRPRPKPRP, the “shrunken log2 fold change” value was found to be 0.521.

Consider RRIRYRPPRLPRPRPRPQDPPRP, for which the “shrunken log2 fold change” value is -0.0639.

For the sequence RRIRLRPPRLPRPRPRPCATPRP, the “shrunken log2 fold change” value is 0.331.

Turning to RRIRMRPPRLPRPRPRPQEVPRP, the “shrunken log2 fold change” value worked out at 0.126.

In the case of RRIRFRPPRLPRPRPRPFGAPRP, the “shrunken log2 fold change” value turned out to be 0.168.

As to RRIRLRPPRLPRPRPRPVRAPRP, the “shrunken log2 fold change” value stood at 0.687.

As to RRIRARPPRLPRPRPRPQPTPRP, the “shrunken log2 fold change” value was 0.781.

On to RRIRTRPPRLPRPRPRPKQAPRP, for which the “shrunken log2 fold change” value is 0.0749.

For the sequence RRIRKRPPRLPRPRPRPYPTPRP, the “shrunken log2 fold change” value is -0.0559.

Take RRIRFRPPRLPRPRPRPQVKPRP: the “shrunken log2 fold change” value is -0.279.

For RRIRVRPPRLPRPRPRPLAIPRP, the “shrunken log2 fold change” value turned out to be 0.0184.

For RRIRFRPPRLPRPRPRPWWTPRP, the “shrunken log2 fold change” value was 0.0245.

For the sequence RRIRTRPPRLPRPRPRPKSFPRP, the “shrunken log2 fold change” value was 0.0134.

For RRIRHRPPRLPRPRPRPAMAPRP, the “shrunken log2 fold change” value was found to be 0.126.

In the case of RRIRLRPPRLPRPRPRPVASPRP, the “shrunken log2 fold change” value is -0.0255.

Regarding RRIRGRPPRLPRPRPRPEVLPRP, the “shrunken log2 fold change” value came to 1.83.

On to RRIRNRPPRLPRPRPRPVSDPRP, for which the “shrunken log2 fold change” value is -0.192.

As for RRIRYRPPRLPRPRPRPFIGPRP, the “shrunken log2 fold change” value was -1.58.

Regarding RRIRARPPRLPRPRPRPDAPPRP, the “shrunken log2 fold change” value was determined as 0.942.

With RRIRARPPRLPRPRPRPNCWPRP, the “shrunken log2 fold change” value amounted to 0.563.

On to RRIRERPPRLPRPRPRPDQDPRP, for which the “shrunken log2 fold change” value was -0.00875.

Regarding RRIRFRPPRLPRPRPRPPNQPRP, the “shrunken log2 fold change” value is 0.23.

Take RRIRSRPPRLPRPRPRPYSRPRP: the “shrunken log2 fold change” value was -0.00979.

In the case of RRIRKRPPRLPRPRPRPNQMPRP, the “shrunken log2 fold change” value worked out at 0.234.

Take RRIRTRPPRLPRPRPRPEDPPRP: the “shrunken log2 fold change” value was -0.00217.

RRIRQRPPRLPRPRPRPSFPPRP: the “shrunken log2 fold change” value is -0.125.

RRIRVRPPRLPRPRPRPVDIPRP: the “shrunken log2 fold change” value worked out at 0.0216.

RRIRVRPPRLPRPRPRPAFEPRP: the “shrunken log2 fold change” value was 0.125.

Take RRIRWRPPRLPRPRPRPWRGPRP: the “shrunken log2 fold change” value was 0.389.

For RRIRGRPPRLPRPRPRPYLWPRP, the “shrunken log2 fold change” value was 0.146.

Regarding RRIRYRPPRLPRPRPRPAHRPRP, the “shrunken log2 fold change” value was found to be 0.0479.

In the case of RRIRIRPPRLPRPRPRPKEKPRP, the “shrunken log2 fold change” value is 0.00643.

Take RRIRQRPPRLPRPRPRPDLMPRP: the “shrunken log2 fold change” value is -0.08.

Regarding RRIRHRPPRLPRPRPRPLFMPRP, the “shrunken log2 fold change” value is -0.492.

In the case of RRIRPRPPRLPRPRPRPWQFPRP, the “shrunken log2 fold change” value was 0.00677.

In the case of RRIRHRPPRLPRPRPRPPLPPRP, the “shrunken log2 fold change” value was 0.476.

Take RRIRNRPPRLPRPRPRPELAPRP: the “shrunken log2 fold change” value was 0.0428.

For RRIRNRPPRLPRPRPRPMPNPRP, the “shrunken log2 fold change” value is -0.0406.

Regarding RRIRHRPPRLPRPRPRPKTNPRP, the “shrunken log2 fold change” value is -0.376.

As to RRIRQRPPRLPRPRPRPYFQPRP, the “shrunken log2 fold change” value is -0.428.

In the case of RRIRKRPPRLPRPRPRPRPRPRP, the “shrunken log2 fold change” value worked out at 1.01.

Take RRIRTRPPRLPRPRPRPPWFPRP: the “shrunken log2 fold change” value came to 0.0438.

With RRIRWRPPRLPRPRPRPQCNPRP, the “shrunken log2 fold change” value is -0.0929.

With RRIRHRPPRLPRPRPRPPWAPRP, the “shrunken log2 fold change” value worked out at 0.226.

For the sequence RRIRNRPPRLPRPRPRPDWWPRP, the “shrunken log2 fold change” value is 0.304.
